Assay: In vivo biodistribution after intravenous administration (IVIS)
Parameters: species or system C57BL/6 mice
Conditions: 5 min (0.08 hour) after administration
Protocol: (FIG. 3A) IVIS images of excised mouse lungs 5 min (0.08 hours) after the administration of OVA protein only and OVA/Erythrocyteplex. […] OVA was used for the fluorescence signal. (FIG. 3B) Biodistribution of OVA only and OVA/Erythrocyteplex 5 min after intravenous (IV) administration. (FIG. 3C) Biodistribution of OVA only and OVA/Erythrocyteplex 6 hours after IV administration. (FIG. 3D) Biodistribution of OVA only and OVA/Erythrocyteplex 24 hours after IV administration. (FIG. 3E) Lung to liver ratio of OVA delivered by the control counterpart and OVA/Erythrocyteplex throughout the entire measurement window. (FIG. 3F) Remaining OVA delivered by Erythrocyteplex through the time after 24 hours post-injection. […] Variation is represented by SE (error bars) from three independent replicates for all data points. (FIG. 3G) Confocal florescence microscopy images of lung vascular capillary sections 5 min. […]
Female 50-56 days old C57BL/6 mice (n=3-6 per group) were administered intravenously using a with OVA-Erythrocyteplex coated with 30 ug/mL OVA. […] Each organ was placed in a 6 well tissue culture plate (Falcon); blood (50 μL) was placed in a heparinized microcapillary tube (Drummond Scientific) and far red fluorescence signal for each organ was imaged using Perkin Elmer IVIS small animal imaging system. Far red signals were quantified using LivingImage software.

B1: free OVA: free ovalbumin protein, control counterpart (protein, UniProt P01012 2-386, looked up)
Ovalbumin: GSIGAASMEFCFDVFKELKVHHANENIFYCPIAIMSALAMVYLGAKDSTRTQINKVVRFDKLPGFGDSIEAQCGTSVNVHSSLRDILNQITKPNDVYSFSLASRLYAEERYPILPEYLQCVKELYRGGLEPINFQTAADQARELINSWVESQTNGIIRNVLQPSSVDSQTAMVLVNAIVFKGLWEKAFKDEDTQAMPFRVTEQESKPVQMMYQIGLFRVASMASEKMKILELPFASGTMSMLVLLPDEVSGLEQLESIINFEKLTEWTSSNVMEERKIKVYLPRMKMEEKYNLTSVLMAMGITDVFSSSANLSGISSAESLKISQAVHAAHAEINEAGREVVGSAEAGVDAASVSEEFRADHPFLFCIKHIATNAVLFFGRCVSP
- signal in the liver: strong signal intensities in the liver
